Assay results as given in article PMC3254808 (Biochemistry, 2011).

B1: Erv2p, wild type (enzyme, yeast, UniProt Q12284 1-196, looked up)
chain: PGLIKAKSGIDEVQGAAAEKNDARLKEIEKQTIMPLMGDDKVKKEVGRASWKYFHTLLARFPDEPTPEEREKLHTFIGLYAELYPCGECSYHFVKLIEKYPVQTSSRTAAAMWGCHIHNKVNEYLKKDIYDCATILEDYDCGCSDSDGKRVSLEKEAKQHG
B2: Erv2p (Saccharomyces cerevisiae S288C) (protein)
chain: MKQIVKRSHAIRIVAALGIIGLWMFFSSNELSIATPGLIKAKSGIDEVQGAAAEKNDARLKEIEKQTIMPLMGDDKVKKEVGRASWKYFHTLLARFPDEPTPEEREKLHTFIGLYAELYPCGECSYHFVKLIEKYPVQTSSRTAAAMWGCHIHNKVNEYLKKDIYDCATILEDYDCGCSDSDGKRVSLEKEAKQHG

Experiments:
cross-linking = target: the molecule itself; assay: cross-linking
oxygen electrode = substrate: OC(CS)C(O)CS; assay: oxygen electrode; assay type: biochemical, Saccharomyces cerevisiae; conditions: O2 as co-substrate, 50 mM Tris/HCl, 0.3 mM EDTA, pH 7.5, 25 °C

Protein | stoichiometry N (cross-linking) | Km (oxygen electrode) [mM] | kcat (oxygen electrode) [min⁻¹]
B1 | 2 | – | –
B2 | – | 7 ± 1 | 230 ± 8
